These are literature values, as cited in publication PMC6194691.

pKd: −log10 of the molar value.

The target in this data set is transferrin receptor (Rattus norvegicus) (UniProt Q99376).
UniProt Q99376, sequence (Q99376 whole entry): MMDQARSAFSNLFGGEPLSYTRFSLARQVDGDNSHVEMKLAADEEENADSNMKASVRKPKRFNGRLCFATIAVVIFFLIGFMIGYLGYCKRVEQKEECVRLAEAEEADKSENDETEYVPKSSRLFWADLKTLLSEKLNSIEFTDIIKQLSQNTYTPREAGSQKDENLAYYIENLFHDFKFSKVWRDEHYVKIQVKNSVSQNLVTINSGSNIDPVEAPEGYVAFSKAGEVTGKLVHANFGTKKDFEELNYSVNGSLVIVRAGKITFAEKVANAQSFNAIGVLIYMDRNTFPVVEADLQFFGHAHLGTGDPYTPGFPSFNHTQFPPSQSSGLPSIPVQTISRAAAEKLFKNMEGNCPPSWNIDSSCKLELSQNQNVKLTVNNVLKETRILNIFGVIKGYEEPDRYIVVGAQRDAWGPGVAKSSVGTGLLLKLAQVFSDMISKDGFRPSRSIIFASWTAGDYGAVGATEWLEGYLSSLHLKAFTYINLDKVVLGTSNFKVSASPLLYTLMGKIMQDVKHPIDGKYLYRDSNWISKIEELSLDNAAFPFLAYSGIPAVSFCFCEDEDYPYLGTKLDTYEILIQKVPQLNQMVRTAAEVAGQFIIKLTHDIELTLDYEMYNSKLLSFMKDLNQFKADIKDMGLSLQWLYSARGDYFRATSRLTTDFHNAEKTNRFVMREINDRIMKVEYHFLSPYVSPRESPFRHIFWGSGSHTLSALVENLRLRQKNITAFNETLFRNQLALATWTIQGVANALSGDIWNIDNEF

apo-transferrin (from UniProt P12346): the negative-log Kd (pKd) was above 7.52.
